Measurements: the nanobody polyreactivity screen of Harvey et al. (2022)

Assay: yeast display, Sf9 membrane polyspecificity reagent, FACS + sequencing; frameworks hold sequencing errors
Outline: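 A nanobody's polyreactivity label depends on the gate it was sorted from. Yeast display cells were stained with 10% biotinylated, detergent-solubilized Sf9 membrane reagent for 1 hour at 4 °C, enriched on streptavidin microbeads and sorted by FACS. The low and high (top ~1%) gates were set on anti-HA fluorescence for expression and streptavidin fluorescence for reagent binding.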

| Sequence | polyreactivity (PSR sort gate) |
| --- | --- |
| QVQLVESAGGLVQAGGSLRLSCAASGSIFGSNAMGWYRQAPGKERELVASITSSGGSTHYADSVKGRFTISRDNAKNTVYLQMNSLKPEDTAVSYCATRAYGYYRWLYDYWGQGTQVTGSS | low polyreactivity |
| QVQLVESGGGLVQAGGSLRLSCAASGRNFRTNAMGWYRQAPGKERELVAAITWRGGNTYYADSVKGRFTISRDNAKNTVYLQMNSLKPEDTAVYYCATAYRYYPSPYDYWGQGTQVSVSS | high polyreactivity |
| QVQLVESGGGLVQAGGSLRLSCAASGSTFGGYVMGWYRQAPGKERELVAAIRRVGRTYYADSVKGRFTISRDNAKNTVYLQMNSLKPEDTAVYYCAKDNWVNYDDSHDSWGQGTQVTVSS | low polyreactivity |
| QVQLVESGGGLVQAGGSLRLSCAASGRTFRVYAMGWYRQAPGKERELVAAITFNGGSTYYADSVKGRFTISRDNAKNTVYLQMNSLKPEDTAVYYCAAATRRSYDHVQMYYWGQGTQVTVSS | high polyreactivity |
| QVQLVDSGGGLVQAGGSLRLSCAASGLIFLYYAMGWYRQAPGKERELVAAISSSGSTYYADSVKGRFTISRDNAKNTVYLQMNSLKPEDTAVYYCAARWTRNYGMNYWGQGTQVTVSS | high polyreactivity |
| QVQLVESGGGLVQAGGSLRLSCAASGSTFAYNAMGWYRQAPGKERELVAAISWGDGITYYADSVKGRFTISRDNAKNTVYLQMNSLKPEDTAVITRDFGYWGQGTQVTVSS | low polyreactivity |
| QVQLVESGGGLVQAGGSLRLSCAASGRILYYYAMGWYRQAPGKERELVAAITWGGGSTYYADSVKGRFTISRDNAKNTVYLQMNSLKPEDTAVYYCNRTFRSRLPTSRGYDYWGQGTQVTVSS | low polyreactivity |
| QVQLVESGGGLVQAGGSLRLSCAASGSTFYYNAMGWYRTAPGKERELVAVIDGSGGFTYYADSVKGRFTISRDNAKNTVYLQMNSLKPEDTAVYYCNADLVYNTFIFSGGDEYDYWGQGTQVTVSS | high polyreactivity |
| QVQLVESGGGLVQAGGSLRLSCAASGFIIGFNAMGWYRQAPGKERELVAAISGSGGRTYYADSVKGRFTISRDNAKNTVYLQMNSLKPEDTAVYYCAKVGYKSPYLYSQHYTGFGYWGQGTQVTVSS | high polyreactivity |
| QVQLVESGGGLVQAGGSLRLSCAASGSNFANYAMGWYIQAHGKERELVAAISWSGSSTYYADSVKGRFTISRYNAKNTVYLQMNSLKPEDTAVYYCAADYATPTWEYYYWGQGTQVTVSS | low polyreactivity |
| QVQLVESGGGLLQAGGSLRLSCAASGSTFPSYAMGWYRQAPGKERELVAAINSGGGTNYADSVKGRFTISRDNAKNNVYLQMNSLKPEDTAVYYCAKSRYDYTKTDGGYWGQGTQVTVSS | low polyreactivity |
| QGQLVESGGGLVQAGGSLRLTCAASGSNFVQNAMGWYRPAPGKERELVAVSNSGDSTNYADSVKGRFTISRDNAKNTVYLHMNSLKPEDNAVYYCAVDDVSYYYLRAYNYELSWYGSGLDYWGQGTQVTVSS | low polyreactivity |
| QVQLVESGGGLVQAGGSLRLSCAASGRTFGVYAMGWYRQAPGKERELVAGIRWRGGSTYYADSVKGRFTISRDNAKNTVYLQMNSLKPEDTAVYYCAADVYLVKYDYWGQGTQVTVSS | low polyreactivity |
| QVHLVESGGGLVQAGGSLRLSGAASGLTFSGNAMGWYRQAPGKERELVAAISWNGGRTYYADSVKGRFTISRDNAKNTVYLQMNSLKPEDTAVYYCAAEVRYSTYEDYDYWGQGTEVTVSS | low polyreactivity |
| QVQLVESGGGLVQAGGSLRLSCAASGRTFYRYAMGWYRQAPGKERELVAVISGRGGGTYYADSVKGRFTISRDNAKNTVYLQMNSLKPEDTAVYYCAKEYWGVTPTYYYWGQGTQVTVSS | high polyreactivity |
| QVQLVESGGGLVQAGGSLRLSCAASGFTFGVYAMGWYRQAPGKERELVAAISVSGGRTYYADSVKGRFTISRDNAKNTVYLQMNSLKPEDTAVYYCAADLGLKTSSRRTSMYYWGQGTQVTVSS | high polyreactivity |
| QVQLVESGGGLVQAGGSLRLSCAASGIIFYVYAMGWYRQAPGKERELVAAISDTAGDTYYADSVKGRFTISRDNAKNTVYLQMNSLKPEDTAVSYCAADYYPLVGYWGQGTQVTVSS | low polyreactivity |
| QVQLVESGGGLVQAGGSLRLSCADSGRTFKSYAMGWYRQAPGKERELVAAISSSGGRTFYADSVKGRFTISRDNAKNTVYLQMNSLKPEDTAVYYCNARGFYRGYTYYYWGQGTQVTVSS | high polyreactivity |
| QVQLVESGGGLVQAGGSLRLSCAAYGSTFPGYAMGWYRQAPGKERELVAAISASGGSTYYADSVKGRFTISRDNAKNTVYLQMISLIPEDTAVYFCAKVLSRGACADDYWGQGTQVTVSS | low polyreactivity |
| QVQLVESGGGLVQAGGSLRLSCAASGSIFRYNVMGWYRQAPGKERELVAAISYTGGRKYYADSVKGRFTISRDNAKNTVYLQMNRLKPEETAVYDCAALGWSGRYRYDYWGQGTQVTVAS | high polyreactivity |
| QVQLVESGGGLVQAGGSLRLSCAASGSTFGRNTMGWYRQAPGKERELVAAITSGDTTTYADSVKGRFTISRDNAKNTVYLQMNSLKPEVTAVYYCAVDPVRGRDYSWMDYWGQGTQVTVSS | low polyreactivity |
| QVQLVESCGGLVQAGGSLRLSCAASGIIFSVNAMGWSRQAPGKERELVAAITIGGSTYYADSVKGRFTISRDNAKNTVYLQMNSLKPEDTAVYYCAADEYGPHTFSPESDSWGQGTQVTVSS | low polyreactivity |

| Sequence | polyreactivity (PSR sort gate) |
| --- | --- |
| QFQLVESGRGLVQAGGSLRLSCASSGSTQKYAMGWYRQAPRKERELVAAIRRTGGSTYYADSVKGRFKISRDNAKNTVYLQMNSLKPEDTAVYYCAAYIWVAESYDWGQGTQVTVSS | low polyreactivity |
| QVQLVESGGGLVQAGGSLRLSCAASGFIFGYYAMGWYRQAPGKERELVAAISSGSITTYADSVKGRFTISRDNAKNTVYLQMNSLKPEDTAVYYCNAVRWFFTFVSSSSGVGHGYWGQGTQVTVSS | low polyreactivity |
| QVQLVESGGGLVQAGGSLRLSCAASGSTFSKNAMGWYRQAPGKERELVAAIRSRGGSTYYADSVKGRFTISRDNAKNTVYLQMNSLKPEDTAVYYCNKVRAYEGDYWGQGTQVTVTS | high polyreactivity |
| QVQLVESGGGLVQAGGSLRLSCAASGSTLDRYVMGWYRQATGKERELVAAISRNGGSTYYADSVKGRFTISRDNAKNTVYLQMNSLIPEDTAVYNCARYAGFPYTQGDYWGQGTQVTVSS | high polyreactivity |
| QDQHVESGGGLVQAGGSLRLSCAASGSTFVYYAMGWYRQAPGKERELVAVITWSGGRTYYADSVKGRFTISRDNAKNTVYLQMNSLKPEDTAGYYCAADPLSGYDYWGQGTQVTVSS | low polyreactivity |
| QVQLVESGGGLFQAGGSLRLICAASGSTFRFYAMGWYRQAPAKERELVAVIRSTGSTYYADSVKGRFTISRDNAKNTVYLQMYSLNPDDTAVYYCAAQNAWWSNGRSYDYWGQGTQVTVSS | low polyreactivity |
| QVQLVESGGGFVQAGGSLRLSCAASGFIFRVYAMGWYRPAPGKERELVAAISKRGGSTFYADSVKGRFTISRDNANNTVYLQMNSLKPEDTAVYDCAASARLGYDYWGQGTQVTVSS | high polyreactivity |
| QVQLVESGGGLVQAGGSLRLSCAASGSIFGRNAMGWYRQAPGKERELVAVISKRSGNTYYADSVKGRFTISRDNAKNTVYLQLNSLKPEDTAVYYCNAVDQKLLRYDYWGQGTQVTVSS | high polyreactivity |
| QVQLVESGGGLVQAGGSLRLSCAASGRIFNYYDMGWYRQAPGKEREFVAAISWRGTSTRYADSVKGRFTISRDNAKNTVYLQMNSLKPEDTAVYYCAADDYARRFSFKYDYWGQGTQVTVSS | high polyreactivity |
| QVQLVESGGRLVQAGGSLRLSCAASGRIFWWNAMGWYRQAPGKERQFVAAISYRGGSTYYADSVKGRFTISRDNAKNTVYLQMNSLKPEDTAVYYCAADWTYVGPSYSYYYWGQGTQVTVSS | low polyreactivity |
| QVQLVESAGGLVQAGGSHRLSCAASGITFYRYVMARYRQAPGKERELVAAITSGGNTYYADSVKGRFTISRDNAKNTFYLQMNRLKPDDTAVYYCAAYFSGPFDYWGQGTQVTVSS | high polyreactivity |
| QVQLVESGGGLVQAGGSLRLSCAASGRTFYANAMGWYRQAPGKERELVATISSGGRTNYADSVKGRFTISRDNAKNTVYFQMNSLKPEDTAVYYCAKRGPYNRWYGRYDYWGQGTQVTVSS | low polyreactivity |
| QVQLVESGGGLVQAGGTLRLSCAPSGSTFVPNAMGWYRQAPGKERELVATITSSSSRTYYADSVKGRFTISRDNAKNTVYLQMNSLKPEDTAVYYCAADGRRVVARYDYWGQGTQVTVSS | high polyreactivity |
| QVQLVESGGGLVQAGGRLRLSCAASGFTQGSYAMGWHRQAPGKEREFVAGITDSGGSTYYADSVKGRYTISRDNAKNTVYLQMNSLKPEDTAVYDCNADFAPWDKQDYPYDYDYWGQGTQVTVSS | low polyreactivity |
| QVQLVESGGGLVQAGGSLRLSCAASGRIFVYYVMGWYRQAPGKERELVAAITYSGGSTYYADSVKGRFTISRDNAKNTVYLQMNRLKTEDTAVYYCNKVDAFGIVRLYYWGQGTQVTVSS | low polyreactivity |
| QVELVESGGGLGQAGGSLRLSCAASGSTFASNTLGWYRQAPGKEREVVAAITQSGGTTYYADSVKGRFTISRDNAKNTVFLQMNSLKPEDTAVYYDYWGQGTQVTVSS | low polyreactivity |
| QVQLVESGGGLVQAGGSLRLSCAASGFTFRYYAMGWYRPAPGKEREFVAAISKSGGTTDYADSVKGRFTISRDNAKNTVYLQMSSLKPEDTAVYYCAKSGGRLWYVWRRYGYWGQGTQVTVSS | high polyreactivity |
| QFQLVESGGGLVQAGGSLRLSCAASGRIFYVYGMGWYRQAPGKERELVAAISKRGDNTYYADSVKGRFTISRDNAKNTVYLQMNSLKPEDTAVYYCNVKRYGGRSDYWGQGTQVTVSS | high polyreactivity |
| QVQLVESGGGLVQAGGSLRLSCAASGFTFYRNAMRWYRQAPGKERELVAAISRGGRTYYADSVKGRFTISRDNAKNTVYLQMNSLKPEDTAVYYCARKYTRKIPASDYWGQGTQVTVSS | high polyreactivity |
| QVQLVESGGGLVQAGGSLRLSCAASGSTYRLYAMGWYRQAPGKERELVAAITWRGTTYYADSVKGRFTISRDNAKNTVYLQMNSLKPEDTAVYYCAARAPVAGYKYRYDYWGQGTQVTVSS | high polyreactivity |
| QVQLVESGGGLVQAGGSLRLSCAASGRTFYRYAMGWYRQAPGKERELVAAISGSGGRTYYADSVKGRFTISRDNAKNTVYFQMNSLKPEDTAVYYCNAYPHAYTGSTREGDYWGQGTQVTVSS | high polyreactivity |
